This is an account of results in US20260126450A1.

Assay [1] addresses surface HIV-1 Env BG505 SOSIP (HIV-1 BG505.DS-SOSIP trimeric antigen), membrane-bound on HEK293 cells (HIV-1). Put plainly: droplet co-expression, FACS sort for anti-Kappa-FITC, NGS of VH genes.
Assay [2] shares this target. Put plainly: FACS, anti-Kappa-FITC stain of HEK293 cells co-expressing surface Env and secreted IgG1 after 24 h in droplets. On the technique in general: A flow cytometer gives signals particle by particle.

In the case of VRC01 (antibody), the Enrichment Ratio (FITC+ prevalence / FITC- prevalence) in assay [1] worked out at 2. Also, the fold anti-Kappa binding against cells expressing 1-20 in assay [2] is more than 5 fold.
